Experimental data: patent US8808698B2, “Methods for inhibition of lymphangiogenesis and tumor metastasis” (The Regents of the University of California, priority 2006, dated 2014)
Entries after “also recorded” stand apart in the source; their conditions may differ.

Legend:
lymphatic vessels = experiment: Murine lymphangiogenesis and angiogenesis assay in growth factor MATRIGEL plugs; format: in vivo; conditions: mice, 400 ng growth factor
Method: (§1) Lymphangiogenesis and angiogenesis assays in MATRIGEL were performed as described (Eliceiri et al, 1999, Mol. Cell 4:915) by injecting subcutaneously into wild-type C57B1/6 mice (n=5) 400 μL of cold MATRIGEL containing 400 ng of bFGF, VEGF-A, or VEGF-C (R&D Systems, Minneapolis, Minn.). Mice were then injected twice at day1 and day3 with 200 μl of blocking anti-α4β1 (PS2) or anti-α5β1 (5H10) antibodies, or isotype control antibody. After 7 days, MATRIGEL plugs were removed, embedded in OCT, frozen and sectioned. Thin sections (5 μm) were immunostained with anti-CD31 antibodies.
For quantification, vessel numbers, tumor foci or pixel number in 10 microscopic fields per cryosection (per animal) were quantified and the mean number of vessels+/−s.e.m. for the entire treatment group was determined.

lymph nodes [1] = experiment: Lymph node lymphangiogenesis proximal to implanted VEGF-C MATRIGEL; format: in vivo, mice
Method: as §1
(§2) C57BL/6 mice were injected subcutaneously with 350 μl of ice-cold saline or VEGF-C-containing Matrigel (1 μg/ml) proximal to the inguinal lymph node. In parallel, 5×10^5 LLC cells were injected dorsally near the inguinal or brachial lymph nodes. Mice were sacrificed after 1, 7 and 14 days. Mice with stimulated inguinal nodes were also sacrificed after 21 days. Inguinal, brachial and mesenteric lymph nodes were removed and embedded in OCT for cryosectioning and immunohistochemistry.

lymph nodes [2] = experiment: Systemic or local VEGF-C injections in normal mice, lymph node lymphangiogenesis; format: in vivo
Lewis lung carcinoma = experiment: Local VEGF-C stimulation of lymph nodes in LLC tumor-bearing mice; format: in vivo
Method: as §2

RFP-LLC cells = experiment: Experimental footpad injection metastasis study (RFP-LLC); format: in vivo, mice
Method: Inguinal lymph node lymphangiogenesis was stimulated by injecting mice intradermally above the left inguinal lymph node with 50 μl of saline or VEGF-C (200 ng per mice) every day for 7 days. Mice were inoculated with 10^6 RFP-LLC cells in a volume of 150 μl in the left footpad. Twenty four hours later, mice were sacrificed. Inguinal, brachial and mesenteric lymph nodes were removed and embedded in OCT for cryosectioning and immunofluorescence. RFP-tumor cell and Lyve-1+pixels were quantified on 5 different sections per lymph node.

LLC cells = experiment: Transwell migration of LLC cells; format: cell-based, murine; conditions: 10, 100 or 500 ng/ml
Method: FIG. 29. Analysis of LLC cell expression of integrin α4 and VEGF-R3. A) Expression of VEGF-R3, integrins α5β1 and α4β1 (black lines) on LLC cells was evaluated by flow cytometry. Grey lines depict binding of isotype matched control IgG. While 100% of cells express integrin α5β1, none express α4β1 or VEGF-R3. B) Transwell migration of LLC cells in the presence or absence of serum or VEGF-C at 10, 100 or 500 ng/ml.

Row | Molecule | invasion of growth factor saturated MATRIGEL by new lymphatic vessels (lymphatic vessels) | lymph node lymphatic vessel density / lymphangiogenesis (lymph nodes [1]; VEGF-C stimulated lymph nodes) | lymph node size (lymph nodes [1]; lymph nodes proximal to implanted MATRIGEL containing VEGF-C) | lymph node lymphangiogenesis after local injections proximal to a single lymph node (lymph nodes [2]; normal mice, local) | lymph node lymphangiogenesis after systemic injections (lymph nodes [2]; normal mice, systemic) | blood vessels within lymph nodes (CD31+ pixels/field) (lymph nodes [2]; versus saline) | lymphatic vessel density in draining (inguinal) lymph node (Lewis lung carcinoma; local injection, versus saline) | lymphangiogenesis and metastasis to other lymph nodes (Lewis lung carcinoma; local stimulation of inguinal node) | primary tumor growth (tumor volume) (Lewis lung carcinoma; local stimulation of inguinal node, after 21 days) | time at which tumor metastases were induced (Lewis lung carcinoma; local stimulation of inguinal node, 21 days for saline treated animals) [days] | lymphangiogenesis in stimulated distant (brachial) lymph node (Lewis lung carcinoma; stimulation of brachial node) | metastasis to stimulated distant (brachial) lymph node (Lewis lung carcinoma; stimulation of brachial node) | rate of lymphangiogenesis or metastasis to inguinal or mesenteric nodes (Lewis lung carcinoma; stimulation of brachial node) | tumor cell retention in the stimulated inguinal lymph node (RFP-LLC cells; RFP-LLC into footpad, 24 h) | tumor cell retention in unstimulated brachial or mesenteric lymph nodes (RFP-LLC cells; RFP-LLC into footpad, 24 h) | lymphangiogenesis in stimulated inguinal lymph node (RFP-LLC cells; intradermal injections for 7 days, non-tumor bearing mice, versus saline) | LLC cell migration in response to growth factor (LLC cells)
1 | bFGF: angiogenic growth factor (R&D Systems) [reference compound] | new lymphatic vessels invade |  |  |  |  |  |  |  |  |  |  |  |  |  |  |  | 
2 | VEGF-C: lymphangiogenesis-promoting growth factor (R&D Systems) used as stimulus (protein, UniProt P49767 112-227, looked up) Vascular endothelial growth …: AHYNTEILKSIDNEWRKTQCMPREVCIDVGKEFGVATNTFFKPPCVSVYRCGGCCNSEGLQCMNTSTSYLSKTLFEITVPLSQGPKPVTISFANHTSCRCMSKLDVYRQVHSIIRR | new lymphatic vessels invade | significant increase | expanded dramatically in size | specifically affected this and not other nodes | Widespread lymph node lymphangiogenesis | no significant effect; also recorded: No statistical difference | significantly increased | no effect | no effect; also recorded: No statistical difference | ≤ 14 | selectively enhanced | accelerated metastasis by one week | without affecting | strongly enhanced | not and No statistical difference | significantly induced | do not migrate
